From patent US20040049009A1, “Methods for improving the antagonistic/agonistic properties of peptidic antagonists/agonists of the corticotropin-releasing factor receptor (crfr)” (priority 2000, published 2004) come the findings set out here.

Assay [1] addresses T1, rat CRF binding protein C-terminally fused with a His6 sequence (rat) (UniProt P24388).
T1 sequence: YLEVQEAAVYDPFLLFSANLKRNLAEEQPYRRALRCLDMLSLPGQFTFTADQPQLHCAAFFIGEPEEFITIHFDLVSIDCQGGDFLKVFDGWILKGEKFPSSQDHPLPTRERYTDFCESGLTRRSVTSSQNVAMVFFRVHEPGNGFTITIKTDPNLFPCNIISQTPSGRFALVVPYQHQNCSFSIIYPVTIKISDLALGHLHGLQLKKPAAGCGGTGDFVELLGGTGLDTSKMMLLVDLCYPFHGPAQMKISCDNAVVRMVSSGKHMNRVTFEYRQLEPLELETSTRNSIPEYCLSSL
Description: SPA competition with 0.1 nM [125I-Tyr0]h/rCRF, His-tagged rCRFBP; 95% CI (0.60-1.3).

For assay [2], the target named is mouse CRF receptor, type 2β (mouse) (UniProt Q60748).
Assay [3] addresses T1, rat CRF binding protein C-terminally fused with a His6 sequence (rat). As to the kind of experiment: SPA competition with 0.1 nM [125I-Tyr0]h/rCRF, His-tagged rCRFBP; 95% CI (70-90).
Assay [4] addresses rat CRF receptor, type 1 (rat) (UniProt P35353). Description: SPA competition with 0.05 nM [125I-Tyr0]h/rCRF, HEK-293 membranes; 95% CI (0.44-0.79).
The target of assay [5] is mouse CRF receptor, type 2β (mouse) (UniProt Q60748). As to the kind of experiment: SPA competition with 0.05 nM [125I-Tyr0]Svg, HEK-293 membranes; 95% CI (15-18).
Assay [6] shares this target. As to the kind of experiment: SPA competition with 0.05 nM [125I-Tyr0]Svg, HEK-293 membranes; 95% CI (0.24-1.36).
In assay [7] the target is rat CRF receptor, type 1 (rat) (UniProt P35353).
Assay [8] deals with T1, rat CRF binding protein C-terminally fused with a His6 sequence (rat). As to the kind of experiment: SPA competition with 0.1 nM [125I-Tyr0]h/rCRF, His-tagged rCRFBP; 95% CI (76-104).
The target in assay [9] is mouse CRF receptor, type 2β (mouse) (UniProt Q60748). Description: SPA competition with 0.05 nM [125I-Tyr0]Svg, HEK-293 membranes; 95% CI (110-300).
Assay [10] deals with rat CRF receptor, type 1 (rat) (UniProt P35353). Description: SPA competition with 0.05 nM [125I-Tyr0]h/rCRF, HEK-293 membranes; 95% CI (0.65-1.4).
Target sequence in this assay (P35353 24-415): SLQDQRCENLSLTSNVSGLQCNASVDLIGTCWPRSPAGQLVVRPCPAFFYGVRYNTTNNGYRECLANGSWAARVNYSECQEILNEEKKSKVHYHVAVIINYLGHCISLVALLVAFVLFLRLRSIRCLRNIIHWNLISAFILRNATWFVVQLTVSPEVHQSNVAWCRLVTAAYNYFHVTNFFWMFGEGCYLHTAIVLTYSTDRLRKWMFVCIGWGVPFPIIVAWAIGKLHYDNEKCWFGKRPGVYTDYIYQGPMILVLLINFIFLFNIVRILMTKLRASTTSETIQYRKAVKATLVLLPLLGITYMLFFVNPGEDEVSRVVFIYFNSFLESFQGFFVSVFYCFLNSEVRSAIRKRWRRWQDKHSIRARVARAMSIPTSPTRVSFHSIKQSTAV
Assay [11] addresses T1, rat CRF binding protein C-terminally fused with a His6 sequence (rat). Description: SPA competition with 0.1 nM [125I-Tyr0]h/rCRF, His-tagged rCRFBP; 95% CI (0.9-1.0).

Chain of ovine corticotropin-releasing factor (ligand) (P01142 148-188): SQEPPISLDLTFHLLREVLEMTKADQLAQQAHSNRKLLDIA

On to “[Ala^21]Svg (from UniProt P01144) (peptide)”, for which the half-inhibitory concentration (IC50) (as a rule, the point on the concentration scale where inhibition reaches its midpoint) in assay [1] came to 0.94 nM. This counts as sub-nanomolar.

In assay [2], [Glu^11,16]Ast (peptide) gave a Rel. intrinsic activity [%] of 1% and a Rel. potency of antagonist [%] of 97%.

As to “[Glu^22]h/rCRF (from UniProt P06850) (peptide)”, the figures for the IC50 in assay [3], in assay [4] and in assay [5] were 80 nM, 0.61 nM and 16 nM, respectively.

Take anti-sauvagine-30 (peptide): the IC50 in assay [6] was determined as 0.3 nM. Also, in assay [2], the Rel. intrinsic activity [%] came to 1% and the Rel. potency of antagonist [%] is 99%. In [7], this substance showed a Rel. intrinsic activity [%] of 6.5% and a Rel. potency of antagonist [%] of 2%.

For the substance astressin (peptide), in assay [8], the IC50 turned out to be 90 nM. Also, in assay [2], the Rel. intrinsic activity [%] stood at 1.1% and the Rel. potency of antagonist [%] is 99%. In assay [7], this substance returned a Rel. intrinsic activity [%] of 9.8% and a Rel. potency of antagonist [%] of 86%.

As for “ovine corticotropin-releasing factor (ligand)”, the IC50 in assay [9] is 200 nM; in [10] it was 1 nM.

Regarding α-helical CRF^9-41 (peptide), the half-inhibitory concentration (IC50) in [11] stood at 1 nM. In assay [2], this substance had a Rel. intrinsic activity [%] of 1.4% and a Rel. potency of antagonist [%] of 97%. In [7], this substance had a Rel. intrinsic activity [%] of 19% and a Rel. potency of antagonist [%] of 14%.
